Target: IgE of unfractionated patient serum (pool of patients' sera known to be reactive to the epitope peptide) (human)
Assay: inhibition: whole patients' sera pre-incubated with soluble peptide, then probing solid-phase E1 peptide

amount of soluble peptide needed to completely inhibit binding: 70 µg
Binder: QGLRGEEMEEMV [soluble form of the epitope peptide …]

— patent US20030103903A1
